Eight molecules from patent US20250177546A1 (SANYOU BIOPHARMACEUTICALS, published 2025) can be followed below.

Assay [1] addresses T1, huROR1-His (human ROR1 ECD AA30-406 with C-terminal His tag, made in house) (human, UniProt Q01973 30-406).
T1 construct: range 30-406; Expressed in HEK293; also called antigen protein huROR1-His; not shown: C-terminal His tag
The assay can be described thus: Gator (BLI) Advanced Kinetics; antibody 30 nM, huROR1-His 480-7.5 nM. How it is done:
First, Q buffer was prepared with PBS (10 mM pH7.4) (IgG-free, purchased from Jackson ImmunoResearch Lab)+0.02% Tween 20 (purchased from thermo)+0.2% BSA (purchased from source culture), and the stock solution of the test antibody was diluted with the prepared Q buffer to a working solution with a final concentration of 30 nM, the stock solution of the antigen protein huROR1-His was prepared with Q buffer into a working solution with multiple dilutions (480, 240, 120, 60, 30, 15, 7.5 nM), and detection and analysis was then performed with Gator instrument and its accompanying software, selecting the Advanced Kinetics experimental mode is used.

The target of assay [2] is T2, human ROR1 on cells (full-length human ROR1 on huROR1-HEK293 cells; human ROR1 on A549 and HT-29 tumor cells) (human, UniProt Q01973 30-937).
T2 construct: whole, on cells; also called hROR1-HEK293T; A549 tumor cells
The assay can be described thus: flow cytometry (FACS) on A549 tumor cells, anti-human IgG-Fc secondary antibody, MFI. How it is done: (§1) In this example, the binding activity of the antibody was evaluated using two types of cells, huROR1-HEK293 cells over-expressing human ROR1 and A549 tumor cells.
(§2) The specific method was as follows: huROR1-HEK293 cells or A549 cells in the logarithmic growth phase were prepared to a single-cell suspension, the density was adjusted to 1×10⁶ cells/mL, then 100 μL/well cells were added to a 96-well round-bottom plate, centrifuged at 4° C., 300 g, and the supernatant was removed. […] After the incubation, the cell mixture was washed three times and then 100 μL of 1:300 diluted secondary antibody Goat F(ab′)₂ Anti-Human IgG-Fc (abcam, ab98596) was added. The mixture was incubated at 4° C. in the dark for 30 min. After washing three times, the cells were detected by flow cytometry (Beckman, CytoFLEX AOO-1-1102).

For assay [3], the target named is T2, human ROR1 on cells (full-length human …). Kind of assay: flow cytometry (FACS) on huROR1-HEK293 cells, anti-human IgG-Fc secondary antibody, MFI. How it is done:
as §1, §2

For assay [4], the target named is T1, huROR1-His (human ROR1 ECD AA30-406 …). Kind of assay: ELISA, huROR1-His coated at 2 µg/mL, goat anti-human Fc-HRP, OD450. The procedure:
(§3) 96-well ELISA plate was coated with 2 μg/mL huROR1-His (30 μL/well) at 4° C. overnight. The next day, the plate was washed three times with PBST and then blocked with 5% skim milk for 2 h. […] After washing with PBST for three times, the secondary antibody Goat-anti-human Fc-HRP (abcam, ab97225) was added and incubated for 1 h. After incubation, the plate was washed with PBST for 6 times and TMB (SurModics, TMBS-1000-01) was added for color development. According to the color development results, 2 M HCl was added to terminate the reaction, and the data were read at OD450 using a microplate reader (Molecular Devices, SpecterMax 190).
On the technique in general: ELISA stands for enzyme-linked immunosorbent assay.

The target in assay [5] is T3, MusROR1-His (mouse ROR1 ECD AA30-406 with C-terminal His tag) (mouse, UniProt Q9Z139 30-406).
T3 construct: range 30-406; Expressed in HEK293; also called mouse ROR1 antigen protein; not shown: C-terminal His tag
Kind of assay: ELISA, MusROR1-His coated at 2 µg/mL, goat anti-human Fc-HRP, OD450. How it is done:
as §3, with “MusROR1-His” for “huROR1-His”

Assay [6] addresses T4, huROR2-His (human ROR2 ECD AA34-403 with C-terminal His tag) (human, UniProt Q01974 34-403).
T4 construct: range 34-403; Expressed in HEK293; also called human ROR2 antigen protein; not shown: C-terminal His tag
The assay can be described thus: ELISA, huROR2-His coated at 2 µg/mL, goat anti-human Fc-HRP, OD450. The procedure:
as §3, with “huROR2-His” for “huROR1-His”, “TMBS-1000-0)” for “TMBS-1000-01)”

Assay [7] concerns the target T1, huROR1-His (human ROR1 ECD AA30-406 …). Kind of assay: ELISA, huROR1-His coated plate, goat anti-human Fc-HRP, OD450.
The target is the same in assay [8]. Described as above. The source holds these as a separate data set.

T1 sequence (Q01973 30-406 limits assumed): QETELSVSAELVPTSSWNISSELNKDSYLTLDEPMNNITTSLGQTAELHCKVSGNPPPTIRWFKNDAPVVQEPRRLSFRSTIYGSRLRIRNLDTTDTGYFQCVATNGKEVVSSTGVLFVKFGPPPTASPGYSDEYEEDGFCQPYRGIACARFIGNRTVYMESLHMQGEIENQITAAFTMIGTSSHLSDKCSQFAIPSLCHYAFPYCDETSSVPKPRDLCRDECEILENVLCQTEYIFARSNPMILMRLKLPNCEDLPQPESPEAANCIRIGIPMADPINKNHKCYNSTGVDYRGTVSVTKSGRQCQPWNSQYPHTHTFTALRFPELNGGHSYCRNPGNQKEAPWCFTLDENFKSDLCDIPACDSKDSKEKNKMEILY
T2 sequence (Q01973 30-937): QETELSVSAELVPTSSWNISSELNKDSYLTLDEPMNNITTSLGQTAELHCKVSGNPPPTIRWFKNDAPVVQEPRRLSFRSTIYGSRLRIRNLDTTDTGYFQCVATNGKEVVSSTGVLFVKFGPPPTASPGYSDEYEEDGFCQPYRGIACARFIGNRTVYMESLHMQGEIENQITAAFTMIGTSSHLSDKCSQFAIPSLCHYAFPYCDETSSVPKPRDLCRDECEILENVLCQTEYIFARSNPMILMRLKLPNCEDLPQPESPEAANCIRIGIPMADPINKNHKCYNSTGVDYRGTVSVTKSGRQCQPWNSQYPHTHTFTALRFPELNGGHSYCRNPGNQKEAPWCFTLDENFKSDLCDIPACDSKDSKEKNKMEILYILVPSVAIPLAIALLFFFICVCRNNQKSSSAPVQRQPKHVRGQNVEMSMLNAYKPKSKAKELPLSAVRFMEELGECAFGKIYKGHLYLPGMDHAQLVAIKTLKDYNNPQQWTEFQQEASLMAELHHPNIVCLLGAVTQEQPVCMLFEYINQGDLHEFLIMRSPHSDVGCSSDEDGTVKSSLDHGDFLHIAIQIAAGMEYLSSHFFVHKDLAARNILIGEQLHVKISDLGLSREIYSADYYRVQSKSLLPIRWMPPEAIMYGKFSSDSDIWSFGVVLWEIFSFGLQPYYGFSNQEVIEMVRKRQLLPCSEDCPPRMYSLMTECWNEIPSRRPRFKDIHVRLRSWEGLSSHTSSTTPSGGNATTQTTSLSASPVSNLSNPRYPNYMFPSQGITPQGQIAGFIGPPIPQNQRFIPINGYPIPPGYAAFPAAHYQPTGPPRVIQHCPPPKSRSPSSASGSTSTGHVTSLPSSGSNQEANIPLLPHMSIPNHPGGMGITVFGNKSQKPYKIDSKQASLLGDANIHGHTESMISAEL
T3 sequence (Q9Z139 30-406 limits assumed): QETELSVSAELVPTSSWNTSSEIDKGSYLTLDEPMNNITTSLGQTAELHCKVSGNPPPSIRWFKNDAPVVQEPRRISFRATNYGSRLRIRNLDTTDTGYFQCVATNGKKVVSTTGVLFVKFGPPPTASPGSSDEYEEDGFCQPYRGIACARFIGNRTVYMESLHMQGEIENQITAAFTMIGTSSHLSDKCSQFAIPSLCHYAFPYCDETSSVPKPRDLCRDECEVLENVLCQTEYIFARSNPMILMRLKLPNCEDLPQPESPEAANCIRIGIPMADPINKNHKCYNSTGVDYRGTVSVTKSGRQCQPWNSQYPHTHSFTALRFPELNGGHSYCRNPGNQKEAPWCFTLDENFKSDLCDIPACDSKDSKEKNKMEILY
T4 sequence (Q01974 34-403 limits assumed): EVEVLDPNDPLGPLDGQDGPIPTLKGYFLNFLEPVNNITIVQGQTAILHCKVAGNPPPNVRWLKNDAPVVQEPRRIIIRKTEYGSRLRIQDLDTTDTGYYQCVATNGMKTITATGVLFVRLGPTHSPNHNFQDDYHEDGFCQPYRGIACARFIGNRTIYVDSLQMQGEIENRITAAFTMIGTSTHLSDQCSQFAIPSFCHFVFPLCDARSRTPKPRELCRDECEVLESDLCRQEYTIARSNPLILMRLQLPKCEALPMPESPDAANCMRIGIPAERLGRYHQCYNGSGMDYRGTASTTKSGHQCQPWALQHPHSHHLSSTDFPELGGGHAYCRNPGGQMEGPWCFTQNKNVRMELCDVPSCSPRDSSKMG

B1: M78 (chimeric antibody) (antibody, human IgG1, kappa, V domains shown)
VH: EVMLVESGGGLVRPGGSLKLSCAASGFTFSSYAMSWVRQSPEKRLEWVASINRGGTTYYPDSVKGRFTISRDNARDILYLQMSSLRSEDTAIYYCARDYYYGSNLYNGMDYWGQGTSVIVSS
VL: DIKITQSPSSMYASLGERVTITCKASQDINSYLSWFQQKPGKSPKTLIYRANRLVDGVPSRFSGSGSGQDYSLTISSLEYEDMGIYYCLQFDEFPYTFGGGTKLEIKR
notes: ExpiCHO expression
The Kd is a measure of binding affinity in units of concentration. A low value points to higher affinity. As a reminder, the koff is the first-order rate constant of dissociation. By kon is commonly meant the second-order rate constant of association. Broadly, the EC50 (read off the curve) is the concentration needed to bring the measured effect to its halfway point. Low values mean an effect from little substance, high ones a need for much substance. What is called EC50 is the concentration that produces a half-maximal response. Low values mean a more potent agent, high ones a less potent agent. B1: in assay [1], binding was characterised by a dissociation constant (Kd) of 1.86 nM, the koff amounted to 0.000614 s⁻¹ and the kon came out at 330000 M⁻¹ s⁻¹. Moreover, the “EC50 (read off the curve)” value in assay [2] was approximately 20 ng/mL. Further, the “EC50 (read off the curve)” value in assay [3] is approximately 100 ng/mL. The same molecule gave an EC50 in assay [4] of 2.12 ng/mL. Moreover, in assay [5], the binding result is given as “no binding (tested: 1 µg/mL)”. Further, the binding result in assay [6] is “no binding (tested: 1 µg/mL)”.

B2: B62-H2L3 (antibody, human IgG1, kappa)
heavy: not shown
light: DIQMTQSPSSLSASVGDRVTITCVTSIDIDDDVNWYQQKPGKAPKLLISAGNTLRPGVPSRFSGSGSGTDFTFTISSLQPEDIATYYCLQSDNLPYTFGGGTKLEIKRTVAAPSVFIFPPSDEQLKSGTASVVCLLNNFYPREAKVQWKVDNALQSGNSQESVTEQDSKDSTYSLSSTLTLSKADYEKHKVYACEVTHQGLSSPVTKSFNRGEC
Consider B2, for which the EC50 in assay [7] was 6.3 ng/mL.

B3: B62-H2L2 (antibody, human IgG1, kappa)
heavy: not shown
light: DIQLTQSPSSLSASVGDRVTIRCVTSIDIDDDVNWYQQKPGKAPKLLISAGNTLRPGVPSRFSGSGSGTDFTFTISSLQPEDIATYYCLQSDNLPYTFGGGTKLEIKRTVAAPSVFIFPPSDEQLKSGTASVVCLLNNFYPREAKVQWKVDNALQSGNSQESVTEQDSKDSTYSLSSTLTLSKADYEKHKVYACEVTHQGLSSPVTKSFNRGEC
Molecule B3 yielded an EC50 in assay [7] of 6.27 ng/mL.

B4: B62-H3L4 (antibody, human IgG1, kappa, V domains shown)
VH: EVQLVESGGGLVQPGGSLRLSCAASGFTFSSYVMSWVRQAPGKGLEYVATINSNGGNTYYADSVKGRFTISRDNSKNTLYLQMGSLRAEDTAMYYCARDSLGLRRRDYAMDYWGQGTTVTVSS
VL: DIQMTQSPSSLSASVGDRVTITCQTSIDIDDDVNWYQQKPGKAPKLLISAGNTLETGVPSRFSGSGSGTDFTFTISSLQPEDIATYYCLQSDNLPYTFGGGTKLEIKR
In assay [8], B4 gave an EC50 of 6.24 ng/mL.

B5: B62-H3L2 (antibody, human IgG1, kappa)
heavy: not shown
light: DIQLTQSPSSLSASVGDRVTIRCVTSIDIDDDVNWYQQKPGKAPKLLISAGNTLRPGVPSRFSGSGSGTDFTFTISSLQPEDIATYYCLQSDNLPYTFGGGTKLEIKRTVAAPSVFIFPPSDEQLKSGTASVVCLLNNFYPREAKVQWKVDNALQSGNSQESVTEQDSKDSTYSLSSTLTLSKADYEKHKVYACEVTHQGLSSPVTKSFNRGEC
On to B5, for which a half-maximal response in assay [8] (EC50) required 6.59 ng/mL.

B6: B62-H1L2 (antibody, human IgG1, kappa, V domains shown)
VH: EVQLVESGGGLVQPGGSLRLSCAASGFTFSSYVMSWVRQTPGKRLELVATINSNGGNTYYPDSVKGRFTISRDNAKNTLYLQMSSLRAEDTAMYYCARDSLGLRRRDYAMDYWGQGTTVTVSS
VL: DIQLTQSPSSLSASVGDRVTIRCVTSIDIDDDVNWYQQKPGKAPKLLISAGNTLRPGVPSRFSGSGSGTDFTFTISSLQPEDIATYYCLQSDNLPYTFGGGTKLEIKR
B6: in assay [7], it took 7.88 ng/mL to reach a half-maximal effect (EC50).

B7: B62-H1L1 (antibody, human IgG1, kappa, V domains shown)
VH: EVQLVESGGGLVQPGGSLRLSCAASGFTFSSYVMSWVRQTPGKRLELVATINSNGGNTYYPDSVKGRFTISRDNAKNTLYLQMSSLRAEDTAMYYCARDSLGLRRRDYAMDYWGQGTTVTVSS
VL: DIQLTQSPSSLSASVGDRVTIRCVTSIDIDDDVNWYQQKPGKAPKLLISAGNTLRPGVPSRFSSSGYGTDFTFTISSMQPEDIATYYCLQSDNLPYTFGGGTKLEIKR
The molecule B7 yielded an EC50 in assay [7] of 7.1 ng/mL.

B8: B62-H2L4 (antibody, human IgG1, kappa, V domains shown)
VH: EVQLVESGGGLVQPGGSLRLSCAASGFTFSSYVMSWVRQAPGKGLELVATINSNGGNTYYPDSVKGRFTISRDNAKNTLYLQMGSLRAEDTAMYYCARDSLGLRRRDYAMDYWGQGTTVTVSS
VL: DIQMTQSPSSLSASVGDRVTITCQTSIDIDDDVNWYQQKPGKAPKLLISAGNTLETGVPSRFSGSGSGTDFTFTISSLQPEDIATYYCLQSDNLPYTFGGGTKLEIKR
In assay [8], B8 displayed an EC50 of 8.48 ng/mL.
